The series concerns the molecule itself. The series can be described thus: SEC; calibrated Superose-12 column, buffer E (20 mM Tris-HCl pH 7.5, 250 mM NaCl, 10% glycerol), flow rate 0.8 ml/min; self-association, size of the oligomer not determined.

B1: Sso0001 (Cas4 family protein from Sulfolobus solfataricus) (enzyme, Sulfolobus solfataricus P2, UniProt Q97TX9 1-202, looked up)
chain: MITEFLLKKKLEEHLSHVKEENTIYVTDLVRCPRRVRYESEYKELAISQVYAPSAILGDILHLGLESVLKGNFNAETEVETLREINVGGKVYKIKGRADAIIRNDNGKSIVIEIKTSRSDKGLPLIHHKMQLQIYLWLFSAEKGILVYITPDRIAEYEINEPLDEATIVRLAEDTIMLQNSPRFNWECKYCIFSVICPAKLT
notes: Sso0001, Cas4 family protein of Sulfolobus solfataricus P2; the sso0001 gene was amplified from the genome with primers that begin at the start codon and end after the stop codon; a single subunit is printed as 23 kDa; Carries an iron-sulfur cluster (mean 4.3 iron atoms per protein, consistent with 4Fe:4S); No removal of the tag is described; The size of the oligomer was not determined; also …
For the protein B1, the binding result is reported as “binds”.

The record behind these values is paper PMC3466216, “The CRISPR Associated Protein Cas4 Is a 5′ to 3′ DNA Exonuclease with an Iron-Sulfur Cluster” (PLoS ONE, 2012).
